Assay results published in PMC5529715.

Target: MBP-A3H hap II (APOBEC3H haplotype II, splicing variant SV182, MBP fusion) (human)
Experiment: SEC-MALS

**Q.** “MBP-A3H hap II (APOBEC3H haplotype II, splicing variant SV182, MBP fusion) (enzyme)” was tested. Which stoichiometry N did it give?
**A.** Its stoichiometry N is 14 to 15 monomers.
